# In the supplement of paper PMC10567573:
# B1: TRIM63 (parent)
# chain: FRCPTCRHEVIMDRHGVYGLQRNL
# Variants of: B1
# Test: protein stability index of a GFP-peptide fusion (GPS, HEK-293T) (PSI 1-6); higher = more stable
# Conditions: c terminus: a fixed tail appended
# 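Note: lentivirally expressed fusions sorted by FACS into six bins by GFP to DsRed ratio, PSI derived from sequencing read proportions per bin multiplied by bin number.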
row,Variant,protein stability index
1,FRCPTCRHEVIMDSHGVYGLQRNL [R14S],3.39
2,FRCPTCRHEVIMDWHGVYGLQRNL [R14W],1.72
3,FRCPTCRHEVIMDDHGVYGLQRNL [R14D],2.5
4,FRCPTCRHEVIMDNHGVYGLQRNL [R14N],2.16
5,FRCPTCRHEVIMDTHGVYGLQRNL [R14T],2.29
6,FRCPTCRHEVIMDLHGVYGLQRNL [R14L],2.05
7,FRCPTCRHEVIMDPHGVYGLQRNL [R14P],2.05
8,FGCPTCRHEVIMDRHGVYGLQRNL [R2G],3.06
9,FDCPTCRHEVIMDRHGVYGLQRNL [R2D],3.32
10,FMCPTCRHEVIMDRHGVYGLQRNL [R2M],2.58
11,FCCPTCRHEVIMDRHGVYGLQRNL [R2C],2.58
12,FICPTCRHEVIMDRHGVYGLQRNL [R2I],2.79
13,FVCPTCRHEVIMDRHGVYGLQRNL [R2V],1.86
14,FTCPTCRHEVIMDRHGVYGLQRNL [R2T],2.05
15,FYCPTCRHEVIMDRHGVYGLQRNL [R2Y],1.87
16,FRCPTCRHEVIMDRHGVQGLQRNL [Y18Q],3.53
17,FRCPTCRHEVIMDRHGVIGLQRNL [Y18I],1.86
18,FRCPTCRHEVIMDRHGVSGLQRNL [Y18S],2.62
19,FRCPTCRHEVIMDRHGVWGLQRNL [Y18W],1.94
20,FRCPTCRHEVIMDRHGVEGLQRNL [Y18E],3.06
21,FRCPTCRHEVIMDRHGVFGLQRNL [Y18F],2.13
22,FRCPTCRHEVIMDRHGVGGLQRNL [Y18G],2.31
23,FRCPTCRHEVIMRRHGVYGLQRNL [D13R],3
24,FRCPTCRHEVIMGRHGVYGLQRNL [D13G],3.87

row,Variant,protein stability index
1,FRCPTCRHEVIMARHGVYGLQRNL [D13A],2.42
2,FRCPTCRHEVIMYRHGVYGLQRNL [D13Y],1.69
3,FRCPTCRHEVIMPRHGVYGLQRNL [D13P],2.15
4,FRCPTCRHEVIMDRHGVYGQQRNL [L20Q],2.07
5,FRCPTCRHEVIMDRHGVYGFQRNL [L20F],2.02
6,FRCPTCRHEVIMDRHGVYGMQRNL [L20M],1.81
7,FRCPTCRHEVIMDRHGVYGSQRNL [L20S],2.11
8,FRCPTCRHEVIMDRHGVYGCQRNL [L20C],2.39
9,FRCPTCRHEVIMDRHGVYGYQRNL [L20Y],1.99
10,FRCPTCRHEVIMDRHGVYGWQRNL [L20W],2.25
11,FRCPTCRHEVIMDRHGVYGEQRNL [L20E],2.27
12,FRCPTCRHEVIMDRHGVYGDQRNL [L20D],2.42
13,FRCPTCRHEVIMDRHGVYGGQRNL [L20G],1.66
14,FRCPTCRHEVIMDRHGVYGHQRNL [L20H],2.75
15,FRCPTCRHEVIMDRHGVYGNQRNL [L20N],2.05
16,FRCPTCRHEVIMDRHGVYGRQRNL [L20R],1.08
17,FRCPTCRHEVIMDRHEVYGLQRNL [G16E],1.87
18,FRCPTCRHEVIMDRHKVYGLQRNL [G16K],2.39
19,FRCPTCRHEVIMDRHAVYGLQRNL [G16A],2.15
20,FRCPTCRHEVIMDRHIVYGLQRNL [G16I],2.15
21,FRCPTCRHEVIMDRHPVYGLQRNL [G16P],2.25
22,FRCPTCRHEVIMDRHHVYGLQRNL [G16H],2.34
23,FRCPTCRHEVIMDRHGVYRLQRNL [G19R],2.31
24,FRCPTCRHEVIMDRHGVYTLQRNL [G19T],2.8

row,Variant,protein stability index
1,FRCPTCRHEVIMDRHGVYSLQRNL [G19S],2.21
2,FRCPLCRHEVIMDRHGVYGLQRNL [T5L],1.72
3,FRCPHCRHEVIMDRHGVYGLQRNL [T5H],3.16
4,FRCPRCRHEVIMDRHGVYGLQRNL [T5R],1.77
5,FRCPFCRHEVIMDRHGVYGLQRNL [T5F],2.32
6,FRCPACRHEVIMDRHGVYGLQRNL [T5A],2.39
7,FRCPVCRHEVIMDRHGVYGLQRNL [T5V],3.27
8,FRCPNCRHEVIMDRHGVYGLQRNL [T5N],3.43
9,FRCPMCRHEVIMDRHGVYGLQRNL [T5M],2.28
10,FRCPYCRHEVIMDRHGVYGLQRNL [T5Y],2.65
11,FRCPCCRHEVIMDRHGVYGLQRNL [T5C],2.14
12,FRCPTCRHEVNMDRHGVYGLQRNL [I11N],2.82
13,FRCPTCRHEVFMDRHGVYGLQRNL [I11F],2.23
14,FRCPTCRHEVHMDRHGVYGLQRNL [I11H],2.54
15,FRCPTCRHEVAMDRHGVYGLQRNL [I11A],1.69
16,FRCPTCRHEVGMDRHGVYGLQRNL [I11G],3.3
17,FRCPTCRHEVWMDRHGVYGLQRNL [I11W],1.69
18,FRCPTCRHEVKMDRHGVYGLQRNL [I11K],1.77
19,FRCPTCRHEVYMDRHGVYGLQRNL [I11Y],1.74
20,FRCPTCRHEVDMDRHGVYGLQRNL [I11D],1.08
21,FRPPTCRHEVIMDRHGVYGLQRNL [C3P],1.94
22,FRHPTCRHEVIMDRHGVYGLQRNL [C3H],4.77
23,FRGPTCRHEVIMDRHGVYGLQRNL [C3G],2.15
24,FRKPTCRHEVIMDRHGVYGLQRNL [C3K],1.74

row,Variant,protein stability index
1,FRFPTCRHEVIMDRHGVYGLQRNL [C3F],3.62
2,FRTPTCRHEVIMDRHGVYGLQRNL [C3T],1.52
3,FRIPTCRHEVIMDRHGVYGLQRNL [C3I],2.6
4,FRNPTCRHEVIMDRHGVYGLQRNL [C3N],3.22
5,FRVPTCRHEVIMDRHGVYGLQRNL [C3V],2.12
6,FRCPTCRHEVIYDRHGVYGLQRNL [M12Y],1.73
7,FRCPTCRHEVIQDRHGVYGLQRNL [M12Q],2.29
8,FRCPTCRHEVIPDRHGVYGLQRNL [M12P],1.62
9,FRCPTCRHEVITDRHGVYGLQRNL [M12T],2.59
10,FRCPTCRHEVIVDRHGVYGLQRNL [M12V],2.98
11,FRCPTCRHEVILDRHGVYGLQRNL [M12L],2.66
12,FRCPTCRHEVIRDRHGVYGLQRNL [M12R],2.11
13,FRCPTCRHEVIWDRHGVYGLQRNL [M12W],2.17
14,FRCPTCRHEVIMDRHGVYGLYRNL [Q21Y],2.17
15,FRCPTCRHEVIMDRHGVYGLHRNL [Q21H],1.86
16,FRCPTCRHEVIMDRHGVYGLMRNL [Q21M],1.63
17,FRCPTCRHEVIMDRHGVYGLIRNL [Q21I],1.74
18,FRCPTCRHEVIMDRHGVYGLDRNL [Q21D],2.1
19,FRCNTCRHEVIMDRHGVYGLQRNL [P4N],3.06
20,FRCVTCRHEVIMDRHGVYGLQRNL [P4V],2.99
21,FRCFTCRHEVIMDRHGVYGLQRNL [P4F],3.47
22,FRCSTCRHEVIMDRHGVYGLQRNL [P4S],2.93
